In article PMC8750214:

Columns and labels:
[1] = flow cytometry of surface 4-1BB, Jurkat; conditions: glycan lost; control: wild type
[2] = immunoblot of total 4-1BB, Jurkat; conditions: glycan lost; control: wild type

In the case of 4-1BB (CD137/TNFRSF9): N138Q, the localisation_or_trafficking [1] is reported as “decreases” and the expression_or_secretion [2] is reported as “no change”.
In the case of 4-1BB (CD137/TNFRSF9): N149Q, the localisation_or_trafficking [1] is reported as “no change”.
